Measurements from the supplement of paper PMC9170038.

Tested on: MS2 coat protein
Assay: apparent KD of MS2 coat protein; designed switch direction (-1 OFF switch, 1 ON switch): -1; higher = weaker reporter binding
Summary of the method: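 An oligonucleotide input, 200 uM small-molecule ligand, or no input was present during titration of SNAP-549-labelled MS2 coat protein, which was doubled from 0.7 or 1.5 nM to 3 µM. Designed RNA switches had been transcribed on Illumina chips by stalled E. coli RNA polymerase. Apparent KD per design is the median over clusters of curves fitted to normalised cluster fluorescence.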

[1] = Eterna round: R95, input ligand: FMN 200 uM
[2] = Eterna round: R95, input ligand: microRNA oligo, concentration not stated
[3] = Eterna round: R95, input ligand: none
[4] = input ligand: microRNA oligo, concentration not stated

Sequence | apparent KD of MS2 coat protein [2] [nM] | apparent KD of MS2 coat protein (input ligand: FMN 200 uM) [nM] | apparent KD of MS2 coat protein (input ligand: none) [nM] | further results
CUGAGCAGACGGAGAUCCAACAUGAGGAUCACCCAUGUCUCAUAAGCUUUUUGUUCAUCUUAUUGUACCUUGGUGCU [JL ViennaUCT Edcesobi mod 4] (puzzle: Sensor v3, turn-off variant 1) | 24.6 |  |  | apparent KD of MS2 coat protein [1]: 149 nM; apparent KD of MS2 coat protein [3]: 252 nM
UUAACGUCAGGAUAUGCAUAAUAUAUUAUAUUAUAAUAUAUACAUGAGGAUCACCCAUGUAGAAGGGACAUUAU [LRO-Excl2-01-Fireball XL5] (Eterna round: R97, puzzle: Exclusion 2) |  | 42.7 | 29.8 | 
CUAAUACAUCAGGAUAUGUGUCAUUAUAGCGACACAGAAGGGAUGACAUGAGGAUCACCCAUGUCAAAGGGUGA [eternacac ex6r4 sub22] (Eterna round: R97, puzzle: Exclusion 6) |  | 85.4 | 639 | 
GUUAACGUAGGAUAUUAGUACAUGCACAUGAGGAUCACCCAUGUUUAGUGGGUCUAGGAAUAAGAAGGGCGAAGAA [EX5 #23] (Eterna round: R97, puzzle: Exclusion 5) |  | 170 | 309 | 
AAUGAGCAAGUCAGGAUAUUAAGCCACAGCUGGCGUAAGAAGGGACAUGAGGAUCACCCAUGUUCAUCCAAUGG [Eternabot (Original) Solution 15] (Eterna round: R97, puzzle: Brourd's mod of Exclusion 4) |  | 24.5 | 15.9 | 
CAUGAUCUUCGGAUCAUGUACAUGAGGAUCACCCAUGUGACGAGUUACAUGUUUUACAAGCUUUUUGCUCGUCUUAU [Sensor v3 - Turn-off variant 1 - 14] (puzzle: Sensor v3, turn-off variant 1) | 99.4 |  |  | apparent KD of MS2 coat protein [1]: 40.3 nM; apparent KD of MS2 coat protein [3]: 47.4 nM
CUGUGUAGACAGGAUAUGCUGUACAAAAGUACAGCAGAAGGGUCUACAUGAGGAUCACCCAUGUUUACUUCAUG [)mei Ex6 B23] (Eterna round: R97, puzzle: Exclusion 6) |  | 20.4 | 98.4 | 
GGUGCGUUUGUGAGGAUAUGCUGGUCCUUGGUUCAGCAGAAGGCACAUGAGGAUCACCCAUGUGGUGUCGUACC [salish99_Bmod_Ex4_031] (puzzle: Brourd's mod of Exclusion 4) | 145 |  |  | 
AUACACUUAGUGAGGAUAUCGUUUUCUUUACGGAUCGAGAAGGCACAUGAGGAUCACCCAUGUUUGACGUGAAU [JR_BMOE4_Sub095] (puzzle: Brourd's mod of Exclusion 4) | 20.5 |  |  | 
UUGUGCACGCUGCGGUCCUACAUGAGGAUCACCCAUGUGGUCUGGUGGCGUGGGUCACCGGACUUGGCUCGUCUUGC [salish99_S_TOV1_R5_059] (Eterna round: R97, puzzle: Sensor, turn-off variant 1) |  | 22.5 | 22.8 | 
AAAAUGUGAGGAUAUCACGGAGCUCCGCGUGACGAAGCUCCUGAGAAGGCACAUGAGGAUCACCCAUGUCCUGU [EX4 A.30] (Eterna round: R97, puzzle: Exclusion 4) |  | 296 | 54.4 | 
AGGAGACAUGAGGAUCACCCAUGUAAGGAUAUGUAGGAGCAGCCGGCUGGUUCGCUCCGCAGAAGGUGCGCGGU [Eternabot (L2) Solution 11] (Eterna round: R97, puzzle: Exclusion 1) |  | 49.3 | 41.3 | 
UUUUGUUUGCGAGGAUAUGCUUUUAGUAAGUUAGCAGAAGGCGCGUUACAUAGAACCUCUUGUUACAUGAGGAUCACCCAUGUU [JR_ExcNG1_Sub036] (Eterna round: R96, puzzle: Exclusion NG 1) |  | 179 | 168 | apparent KD of MS2 coat protein [4]: 110 nM
AACCUCGUAGCAGGAUAUUAGAGCUCCCGCAAAUGAGAAGGGCUACGAAACACUUGAGGAUCACCCAAGUACCGUGGUCCUCUA [Mutated MS2 EX1.8] (Eterna round: R96, puzzle: Exclusion NG 1) |  | 12.7 | 20.7 | apparent KD of MS2 coat protein [4]: 17.6 nM
CUUUAGCUAGGAUAUACAUGAGGAUCACCCAUGUUAGCGGUCCAUUGGGCCGCGGGUUGUAGAAGGAGCAUUAA [Azabeso] (puzzle: Exclusion 3) | 25.3 |  |  | 
CUCAAGUGAGGAUAUAUACUUCCAUCAUUUGAGAUAGAAGUAUAGAAGGCACAUGAGGAUCACCCAUGUAUAAC [Lamaanan] (puzzle: Exclusion 4) | 99.2 |  |  | 
AAUCAUCAUGUAGGAUAUGCGUGGCGAAGCUAUGCAGAAGGACAUGAGGAUCACCCAUGUUCUUGCGUCUGCGUACAGAUGCAA [Mat - Exclusion NG 1 - Mod of JL - D72] (Eterna round: R96, puzzle: Exclusion NG 1) |  | 135 | 72 | apparent KD of MS2 coat protein [4]: 67.7 nM
AGCUAGUCAGGAUAUUCUAAUGAUUACAUGAGGAUCACCCAUGUGAAUGGACAAGGGUGUGAAGAAGGGACUAGCG [Omei Ex5 A10] (Eterna round: R97, puzzle: Exclusion 5) |  | 426 | 4030 | 

Sequence | apparent KD of MS2 coat protein [2] [nM] | apparent KD of MS2 coat protein (input ligand: FMN 200 uM) [nM] | apparent KD of MS2 coat protein (input ligand: none) [nM] | further results
GGUGCGUAUGUGAGGAUAUGCUGGUCCUUGGAUCAGCAGAAGGCACAUGAGGAUCACCCAUGUGGUGUCGUACC [JL bmx4 3.46] (puzzle: Brourd's mod of Exclusion 4) | 149 |  |  | 
AUCUUGAUAGGAUAUACAUGAGGAUCACCCAUGUCCCACCCGUUACCUCUGGCCCUAUGUAGAAGGAUCGUCUA [Exy#20] (Eterna round: R97, puzzle: Exclusion 3) |  | 50.5 | 68.5 | 
GUACUGACAGGAUAUACAUGAGGAUCACCCAUGUGCCUUAAUGCUACAAAAGUAGCAAGUAGAAGGGUCUGUAC [Omei Ex3 Model Bachelor's Dilema v11] (Eterna round: R97, puzzle: Exclusion 3) |  | 79.7 | 16.5 | 
UUUUUGUGAGGAUAUCAGUAGUAGAACAAUAGUACUACUACUGAGAAGGCACAUGAGGAUCACCCAUGUUUCUC [Fiskers Ex 4 Super stable 44 mod 10] (puzzle: Exclusion 4) | 43.3 |  |  | 
AAGUCGACGGUGAGGAUAUUGGUUGAACGACAGAUCAAGAAGGCACAUGAGGAUCACCCAUGUGGGUAACGUCG [Brourd's EX4 #38] (Eterna round: R97, puzzle: Brourd's mod of Exclusion 4) |  | 34.5 | 19.1 | 
CUCUUGUUAGGAUAUCAAACCGGCGGCGGAGCCGCCGGUAGUGAGAAGGGACAUGAGGAUCACCCAUGUAAGAA [Isarcedi] (puzzle: Exclusion 4) | 65.2 |  |  | 
UGAAAGUGAGGAUAUCCAAUAUAUGACAUGAGGAUCACCCAUGUUUCCACUCGUACCUCCGGAGAAGGCACAAGGU [Ex5 #57] (Eterna round: R97, puzzle: Exclusion 5) |  | 25.5 | 29.4 | 
GCCUCACUUGAGGAUCACCCAAGUCAGGAUAUUCACUGAACUGCGUAGCAAUUCGGCCGAAGAAGGGAUUCGGG [Veala] (Eterna round: R97, puzzle: Exclusion 1) |  | 75.2 | 107 | 
GAAUAGAGAGGAUAUGCGAAGUAGGUAGUAAGAUAUAUCUGACAUGAGGAUCACCCAUGUAGAAGGCUCAGAUC [EX2 #4] (Eterna round: R97, puzzle: Exclusion 2) |  | 34.8 | 35.2 | 
GCAGGCGUCUAGGCUCGUCUUAUUUUGAGAAGAUUGAUAACAUGAGGAUCACCCAUGUUUGUGGGAGAGUUGGAGUG [JR_SV3TOV2_Sub014] (puzzle: Sensor v3, turn-off variant 2) | 258 |  |  | apparent KD of MS2 coat protein [1]: 159 nM; apparent KD of MS2 coat protein [3]: 209 nM
CAUGAUUGGCGAGGAUAUUGAUCUAGUUGGCGACGAGAAGGCGCCUGUCACAUGAGGAUCACCCAUGUGAAUCUGGUGAAAGAG [Ex NG1 #89] (Eterna round: R96, puzzle: Exclusion NG 1) |  | 24.9 | 25.9 | apparent KD of MS2 coat protein [4]: 18.5 nM
CCGAAUAUGUAGGAUAUCGUAUCGGAAACGAUACGAGAAGGGCAAACAUGAGGAUCACCCAUGUUCCUUAACGG [Fiskers Ex 6 - 13] (puzzle: Exclusion 6) | 15.1 |  |  | apparent KD of MS2 coat protein [1]: 16.3 nM; apparent KD of MS2 coat protein [3]: 14.2 nM
CCGGAAAUAGAGGAUAUCGUAUCGGAUACGAUACGAGAAGGCUGUACAUGAGGAUCACCCAUGUGUCCUACCGG [Fiskers Ex 6 - 58] (puzzle: Exclusion 6) | 11.3 |  |  | 
CGGAACCAGACAGGAUAUACCUGUCCGAGACAGACACACAUGAGGAUCACCCAUGUUGAUGUCAGGUAGAAGGGUCAUAAAGAC [Eternabot solution 7] (Eterna round: R96, puzzle: Exclusion NG 2) |  | 9.86 | 11.5 | apparent KD of MS2 coat protein [4]: 10.3 nM
ACAAGCUAACUCAUAUCUUACAUGAGGAUCACCCAUGUUUUUUCAAUUUUGUUUGGUCUCCUUUGUGCUCGUCUUAU [JR_STOV1_Sub052] (Eterna round: R97, puzzle: Sensor, turn-off variant 1) |  | 66 | 64.9 | 
GAGAAACAUGAGGAUCACCCAUGUAAGGAUAUGCUGAAAAUCACGGAUUAAUCGUGCAGCAGAAGGUACAAAGG [Mat - Mod of my Eli Mod D42] (puzzle: Exclusion 1) | 110 |  |  | apparent KD of MS2 coat protein [1]: 142 nM; apparent KD of MS2 coat protein [3]: 143 nM
GUUUUCAGACGGAGAUCCGACAUGAGGAUCACCCAUGUCUCACAAGCUUUUUGCUCGUCUUAUACUCCUCUGUUCUC [Elimod 43 - Jieux - Sensor, turn-off variant 1] (Eterna round: R97, puzzle: Sensor, turn-off variant 1) |  | 16.9 | 15.9 | 
